# Results as given in patent US20230235013A1 (MABSOLVE, published 2023).
# Changes are numbered by the printed parent chain. Names may count otherwise.
# T1: mouse FcRn (Sino Biological Cat. No. CT029-M08H) (mouse, UniProt Q61559 22-297; P01887 21-119)
# T1 construct: Bought protein, captured on an anti-histidine chip
# T1 sequence (looked up): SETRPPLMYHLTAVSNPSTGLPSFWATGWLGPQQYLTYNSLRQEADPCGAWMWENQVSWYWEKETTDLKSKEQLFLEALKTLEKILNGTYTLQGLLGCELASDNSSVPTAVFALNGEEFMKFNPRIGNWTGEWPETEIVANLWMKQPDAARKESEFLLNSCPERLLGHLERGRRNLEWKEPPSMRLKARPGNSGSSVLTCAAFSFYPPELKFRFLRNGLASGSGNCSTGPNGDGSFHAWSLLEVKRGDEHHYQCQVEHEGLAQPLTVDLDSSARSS
# T1 sequence (b2m, looked up): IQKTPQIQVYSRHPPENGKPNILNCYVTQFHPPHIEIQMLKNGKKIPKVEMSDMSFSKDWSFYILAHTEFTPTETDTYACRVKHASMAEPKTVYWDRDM
# B1: anti-CD20 (rituximab variable regions) rabbit IgG L234Q/L235S/G236R (antibody)
# heavy: QVQLQQPGAELVKPGASVKMSCKASGYTFTSYNMHWVKQTPGRGLEWIGAIYPGNGDTSYNQKFKGKATLTADKSSSTAYMQLSSLTSEDSAVYYCARSTYYGGDWYFNVWGAGTTVTVSSGQPKAPSVFPLAPCCGDTPSSTVTLGCLVKGYLPEPVTVTWNSGTLTNGVRTFPSVRQSSGLYSLSSVVSVTSSSQPVTCNVAHPATNTKVDKTVAPSTCSKPTCPPPEQSRGPSVFIFPPKPKDTLMISRTPEVTCVVVDVSEDDPEVQFTWYINNEQVRTARPPLREQQFNSTIRVVSTLPIAHEDWLRGKEFKCKVHNKALPAPIEKTISKARGQPLEPKVYTMGPPREELSSRSVSLTCMINGFYPSDISVEWEKNGKAEDNYKTTPAVLDSDGSYFLYSKLSVPTSEWQRGDVFTCSVMHEALHNHYTQKSISRSPGK
# light: QIVLSQSPAILSASPGEKVTMTCRASSSVSYIHWFQQKPGSSPKPWIYATSNLASGVPVRFSGSGSGTSYSLTISRVEAEDAATYYCQQWTSNPPTFGGGTKLEIKRDPVAPSVLLFPPSKEELTTGTATIVCVANKFYPSDITVTWKVDGTTQQSGIENSKTPQSPEDNTYSLSSTLSLTSAQYNSHSVYTCEVVQGSASPIVQSFNRGDC
# notes: also called 23.77
# B2: anti-CD20 (rituximab) human IgG1 L234Q/G236R (antibody)
# heavy: not shown
# light: QIVLSQSPAILSASPGEKVTMTCRASSSVSYIHWFQQKPGSSPKPWIYATSNLASGVPVRFSGSGSGTSYSLTISRVEAEDAATYYCQQWTSNPPTFGGGTKLEIKRTVAAPSVFIFPPSDEQLKSGTASVVCLLNNFYPREAKVQWKVDNALQSGNSQESVTEQDSKDSTYSLSSTLTLSKADYEKHKVYACEVTHQGLSSPVTKSFNRGEC
# notes: EU numbering; also called 2-30; copies: 2 + 2
# B3: anti-CD20 (rituximab variable regions) human IgG2 L234Q/L235S (antibody)
# heavy: QVQLQQPGAELVKPGASVKMSCKASGYTFTSYNMHWVKQTPGRGLEWIGAIYPGNGDTSYNQKFKGKATLTADKSSSTAYMQLSSLTSEDSAVYYCARSTYYGGDWYFNVWGAGTTVTVSSASTKGPSVFPLAPCSRSTSESTAALGCLVKDYFPEPVTVSWNSGALTSGVHTFPAVLQSSGLYSLSSVVTVPSSNFGTQTYTCNVDHKPSNTKVDKTVERKCCVECPPCPAPPQSGPSVFLFPPKPKDTLMISRTPEVTCVVVDVSHEDPEVQFNWYVDGVEVHNAKTKPREEQFNSTFRVVSVLTVVHQDWLNGKEYKCKVSNKGLPAPIEKTISKTKGQPREPQVYTLPPSREEMTKNQVSLTCLVKGFYPSDIAVEWESNGQPENNYKTTPPMLDSDGSFFLYSKLTVDKSRWQQGNVFSCSVMHEALHNHYTQKSLSLSPGK
# light: B2 light
# notes: also called 11.144; copies: 2 + 2
# B4: anti-CD20 (rituximab variable regions) human IgG4 L234Q/L235S/G236R (with S228P) (antibody)
# heavy: QVQLQQPGAELVKPGASVKMSCKASGYTFTSYNMHWVKQTPGRGLEWIGAIYPGNGDTSYNQKFKGKATLTADKSSSTAYMQLSSLTSEDSAVYYCARSTYYGGDWYFNVWGAGTTVTVSSASTKGPSVFPLAPCSRSTSESTAALGCLVKDYFPEPVTVSWNSGALTSGVHTFPAVLQSSGLYSLSSVVTVPSSSLGTKTYTCNVDHKPSNTKVDKRVESKYGPPCPPCPAPEQSRGPSVFLFPPKPKDTLMISRTPEVTCVVVDVSQEDPEVQFNWYVDGVEVHNAKTKPREEQFNSTYRVVSVLTVLHQDWLNGKEYKCKVSNKGLPSSIEKTISKAKGQPREPQVYTLPPSQEEMTKNQVSLTCLVKGFYPSDIAVEWESNGQPENNYKTTPPVLDSDGSFFLYSRLTVDKSRWQEGNVFSCSVMHEALHNHYTQKSLSLSLGK
# light: B2 light
# notes: copies: 2 + 2
# B5: anti-CD20 (rituximab) human IgG1 L234R/L235R/G236R (antibody)
# heavy: QVQLQQPGAELVKPGASVKMSCKASGYTFTSYNMHWVKQTPGRGLEWIGAIYPGNGDTSYNQKFKGKATLTADKSSSTAYMQLSSLTSEDSAVYYCARSTYYGGDWYFNVWGAGTTVTVSSASTKGPSVFPLAPSSKSTSGGTAALGCLVKDYFPEPVTVSWNSGALTSGVHTFPAVLQSSGLYSLSSVVTVPSSSLGTQTYICNVNHKPSNTKVDKKVEPKSCDKTHTCPPCPAPERRRGPSVFLFPPKPKDTLMISRTPEVTCVVVDVSHEDPEVKFNWYVDGVEVHNAKTKPREEQYNSTYRVVSVLTVLHQDWLNGKEYKCKVSNKALPAPIEKTISKAKGQPREPQVYTLPPSRDELTKNQVSLTCLVKGFYPSDIAVEWESNGQPENNYKTTPPVLDSDGSFFLYSKLTVDKSRWQQGNVFSCSVMHEALHNHYTQKSLSLSPGK
# light: B2 light
# notes: EU numbering; also called 2-43; copies: 2 + 2
# B6: anti-CD20 (rituximab) human IgG1 L234Q/L235S/G236R/T250Q/M428L (antibody)
# heavy: B5 heavy with R238Q, R239S, T254Q, M432L
# light: B2 light
# notes: EU numbering; also called 10.146; copies: 2 + 2
# B7: anti-CD20 (rituximab) human IgG1 L234Q/L235S/G236R/M252Y/S254T/T256E (antibody)
# heavy: B5 heavy with R238Q, R239S, M256Y, S258T, T260E
# light: B2 light
# notes: EU numbering; also called 10.145; copies: 2 + 2
# Tests used:
# [1] = molecular target: T2, C-terminus biotinylated human FcRn attached to Streptavidin-SmBiT (FcRn-SAv-SmBiT) (human, UniProt P55899 24-297; P61769 21-119, limits assumed, C-terminus biotinylated (AviTag), attached to Streptavidin-SmBiT); experiment: NanoBiT FcRn competition immunoassay, competitor Tracer-LgBiT human IgG, pH 6.0
# T2 construct: Kit reagent; also called hFcRn-AviTag
# [2] = molecular target: T3, Human C1q (Sigma Cat. No. 20476), HRP-labelled (human, UniProt P02745 23-245; P02746 28-253; P02747 29-245); experiment: ELISA, antibody coated, HRP-C1q; Expt 2, buffer alone 0.051
# T3 construct: Coupled to horse-radish peroxidase with Lightning-Link kit; also called HRP-labelled C1q
# [3] = molecular target: T3, Human C1q (Sigma Cat. No. 20476), …; experiment: ELISA, antibody coated, HRP-C1q; Expt 1, buffer alone 0.053
# [4] = molecular target: T4, human FcRn (R&D Systems Cat. No. 8639-Fc) (human, UniProt P55899 24-297; P61769 21-119); experiment: SPR, FcRn captured; Expt 3
# [5] = molecular target: T4, human FcRn (R&D Systems Cat. No. …); experiment: SPR, FcRn captured; Expt 1
# [6] = molecular target: T3, Human C1q (Sigma Cat. No. 20476), …; experiment: ELISA, antibody coated, HRP-C1q; Expt 2, buffer alone 0.091
# [7] = molecular target: T4, human FcRn (R&D Systems Cat. No. …); experiment: SPR, FcRn captured; Expt 2
# [8] = molecular target: T4, human FcRn (R&D Systems Cat. No. …); experiment: SPR, FcRn captured; Mean
# [9] = molecular target: T3, Human C1q (Sigma Cat. No. 20476), …; experiment: ELISA, antibody coated, HRP-C1q; Expt 1, buffer alone 0.061
# [10] = molecular target: T5, cynomolgus monkey FcRn (Sino Biological Cat. No. CT031-C08H) (cynomolgus monkey, UniProt Q8SPV9 24-297; Q8SPW0 21-119); experiment: SPR, FcRn captured via anti-His, pH 6.0;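 note: SPR binding signal relative to the reference cell, corrected by subtracting the response of a blank sample of running buffer alone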
# T5 construct: Bought protein, captured on an anti-histidine chip; also called cynomolgus FcRn
# [11] = molecular target: T1, mouse FcRn (Sino Biological Cat. No. …); experiment: SPR, FcRn captured via anti-His, pH 6.0;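 note: SPR binding signal relative to the reference cell, corrected by subtracting the response of a blank sample of running buffer alone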
# [12] = molecular target: T4, human FcRn (R&D Systems Cat. No. …); experiment: SPR, FcRn captured via anti-His, pH 6.0;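 note: SPR binding signal relative to the reference cell, corrected by subtracting the response of a blank sample of running buffer alone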
Binder,Mean binding activity (% of wild-type reference) [1],Mean Absorbance [2],Mean Absorbance [3],other results
B1,147 % of wild-type reference,0.048 absorbance (450 nm),0.051 absorbance (450 nm),–
B2,–,–,–,Corrected and normalised response (% of wild-type reference) [4]: 99 % of wild-type reference; Corrected and normalised response (% of wild-type reference) [5]: 100 % of wild-type reference; Mean Absorbance [6]: 0.089 absorbance (450 nm); Corrected and normalised response (% of wild-type reference) [7]: 99 % of wild-type reference; Corrected and normalised response (% of wild-type reference) [8]: 99.3 % of wild-type reference
B3,143 % of wild-type reference,–,–,–
B4,114 % of wild-type reference,0.052 absorbance (450 nm),0.051 absorbance (450 nm),–
B5,–,–,–,Corrected and normalised response (% of wild-type reference) [4]: 108 % of wild-type reference; Corrected and normalised response (% of wild-type reference) [5]: 106 % of wild-type reference; Mean Absorbance [9]: 0.029 absorbance (450 nm); Corrected and normalised response (% of wild-type reference) [7]: 108 % of wild-type reference; Corrected and normalised response (% of wild-type reference) [8]: 108 % of wild-type reference; Corrected response (RU) [10]: 1300 RU; Corrected response (RU) [11]: 181 RU; Corrected response (RU) [12]: 570 RU
B6,650 % of wild-type reference,0.062 absorbance (450 nm),0.051 absorbance (450 nm),–
B7,3940 % of wild-type reference,0.056 absorbance (450 nm),0.052 absorbance (450 nm),–
